How the values were obtained:
[1] = Laccase activity assay with ABTS; influence of pH and temperature; assay type: biochemical
From the text: FIG. 8. A surface response plot of the relative activity (U/mL) of the LacGL1 laccase expressed in Pichia pastoris as a function of pH and temperature. The effect of the pH and temperature on the LacGL1 laccase activity, expressed from P. pastoris, was modeled via randomized, full factorial, statistically designed experiment—MODDE program version 7.0.0.1 (Umetrics, Umeå, Sweden). The statistical design consisted of 12 experiments, including a triplicate repetition at the center point (pH 5 and 40° C.), using ABTS as a substrate. The influence of the temperature and pH was monitored between 25-55° C. and pH 4-6 (for 0.1 M citrate-phosphate buffer), respectively. The mixture with the ABTS and buffer at the defined pH value was incubated for 5 min. in a thermocycler set to a desired temperature and afterwards added to a previously pre-diluted enzyme in a microtiter plate which was incubated for 1 min. in a microtiter plate reader set to a desired temperature. After mixing the substrate and buffer with the enzyme, the initial rate of the product formation was measured as described above. The volumes and concentrations of enzyme, substrate, and buffer were identical as for the laccase activity assay.
The laccase activity was measured based on a modified method of Ters et al. (2009). The laccase activity was defined as the amount of the enzyme required to oxidise 1 μmol of ABTS per minute at 25° C., and pH 4.7. The assay mixture contained: 0.1 M citrate-phosphate buffer (255 μL, pH 4.7), ABTS (5 μL, 4 mM (ABTS stock solution)), and pre-diluted laccase (5 μL) that ensured the linear range of Michaelis-Menten kinetics. The oxidation of ABTS was monitored at 420 nm (ε420=36800 M^−1cm^−1) for 2 min. in an Infinite 200 microtiter plate reader (Tecan, Salzburg, Austria). Laccase activity assays on the substrates: hydroquinone (248 nm), 2.6-dimethoxyphenol (470 nm), and guaiacol (436 nm) was done similarly with the substrate concentration as described in Table 2 using the following extinction coefficient values: 17.542 M^−1cm^−1, 35.645 M^−1cm^−1, and 6.400 M^−1cm^−1, respectively (Minussi et al. 2007). The data collection was monitored by the program Tecan i-control version 1.5.14.0 (Tecan, Salzburg, Austria). The calculated laccase activity was corrected by the absorbance of a control sample which contained: 0.1 M citrate-phosphate buffer (255 μL, pH 4.7), ABTS (5 μL, 4 mM), and 5 μL of distilled water instead of the enzyme. […]
The effect of the pH and temperature on the LacGL1 laccase activity was determined with a statistically designed, randomized, full factorial experiment as described in FIG. 8. The relative laccase activity was calculated based on the LacGL1 activity at pH 4.7 and 25° C. […]

[2] = Laccase-cellulase catalyzed hydrolysis of pretreated biomass, glucose release; assay type: biochemical; settings: with cellulase 1 or 2, pH 5.1, 50° C., 30 hour, p<0.05
Description: FIG. 14. A graphical comparison of glucose released over time during hydrolysis of pre-treated barley straw at pH 5.1 and 50° C. by each of commercial enzyme preparations Cellulase 1 (CC2) [A]; or Cellulase 2 [B], either alone, or in combination with a laccase enzyme; the tested laccases being respectively LacGL1 and GLlac1 (LacJooSS; Q9HG17) derived from G. lucidum; and laccases derived from Agaricus bisporus (Sigma 40452), Pleurotus ostreatus (Sigma 75117) and, Trametes versicolor (Sigma 51639).
The commercial fungal laccases were purchased as lyophilized protein samples from Sigma Aldrich. A solution of each of the above 5 laccases was prepared in a citric buffer containing 20% of glycerol (pH 5.1, 100 mM).
Two different commercially available cellulase enzyme preparations used in the comparative study were “Cellulase 1” and “Cellulase 2”, which were tested in combination with each of the laccases listed above.
The three different types of pretreated biomass used in the comparative study were sugarcane bagasse, barley straw and wheat straw. The source and pre-treatment of the sugarcane bagasse by steam explosion was as set out in Example 9. […] The composition of the dry and the pretreated biomass were determined according to the US National Renewable Energy Laboratory (NREL) procedures (Sluiter et al, 2010).
The laccase-cellulase catalyzed hydrolysis of the pretreated biomass samples to release glucose was performed as follows: Hydrolysis of 5% (w/v) samples of pretreated sugarcane bagasse, barley straw, and wheat straw biomass were assayed using an Enzyme/Substrate (E/S) ratio of 0.064% w/w for laccases and of 0.4% w/w for each commercial cellulase preparation in each hydrolysis reaction. The E/S dosage was based on the total protein concentration used, as determined using Pierce BCA (BiCinchoninic Acid) protein assay kit microplate procedure according to manufacturer's instruction (Thermo Fisher Scientific, Rockford, US). […]
Laccase and cellulase-mediated hydrolysis of the 3 biomass forms, measured as glucose release, are shown graphically in FIGS. 13, 14 and 15. […]

B1: LacGL1: Fungal laccase from Ganoderma lucidum CBS229.93 (SEQ ID NO: 5/9), recombinantly expressed in Pichia pastoris X-33 (protein, listed as Ganoderma lucidum)
chain: GIGPKTDLTISNADVAPDGYTRAAVVVNGVFPAPLITGNKGDRFQLNVIDQMTNHTMLKSTSIHWHGFFQKGTNWADGPAFINQCPISSGHSFLYDFQVPDQAGTFWYHSHLSTQYCDGLRGPFVVYDPKDPLKKLYDIDDDSTVITLTDWYHVAARLGPRFPLGSDSTLINGLGRSTTNVTADLAVINVTQGKRYRFRLVSLSCDPNYTFSIDDHNMTVIEADGIETQPVTVNAIQIFSAQRYSFVLTANQTIDNYWIRANPNFGNVGFTDGINSAILRYAGADPVEPTTSQQTTQNLLNEVDLHPFVPKRTPGQPTQGGVDTAINMVFNFNGSNFFINNASFVPPTVPVLLQILSGAQAAQDLLPSGSVYTLPVNKSIELTFPATANAPGAPHPFHLHGHAFAVVRSAGSTVYNYDNPVWRDVVSTGTPAAGDNVTIRFQTDNPGPWFLHCHIDFHLEAGFAVVFAEDPTDTSLANPVPKAWSDLCPTYDALSVDDQ
modifications: mat_peptide (1)..(499) Mature LacGL1 laccase (minus signal peptide)
[1]; expressed by recombinant P. pastoris, after sterile filtration, ABTS, 25° C., pH 4.7
  laccase activity: 17.5 U/mL
[1]; pH 4.7
  temperature at which activity is highest: 40-50 °C
[1]; pH 4.7, ABTS, factorial model 25-55° C.
  temperature optimum (predicted, highest relative activity): 55 °C
[1]; substrate ABTS
  pH optimum (highest relative activity): 4.7
[2]
  glucose release compared to GLlac1: significantly greater
  glucose release compared to the other tested laccases: significantly enhanced
